Laboratory results reported in the FLAb antibody collection.

Assay: melting temperature
Conditions: Circular dichroism

Sequence	Tm
QVQLVESGGGLVQPGGSLRLSCAASGDTYGSYWMGWFRQAPGQGLEAVAAINRGGGYTVYADSVKGRFTISRDNSKNTLYLQMNSLRAEDTAVYYCAASGVLGGLHEDWFNYWGQGTLVTVSSHHHHHH	74 °C
QVQLVESGGGLVQPGGSLRLSCAASGYTYISGWFRQAPGQGLEAVAAIRSSDGTTYYADSVKGRFTISRDNSKNTLYLQMNSLRAEDTAVYYCAATEVAGWPLDIGIYDYWGQGTLVTVSS	63.4 °C
TRVDQTPRTATKETGESLTIICVLTDTSCVLHSTSWFRKNPGTTDWERMSIGGRYVESVNKGAKSFSLRIKDLTVADSATYYCKAQSHEYMEVCPYDWYDGAGTVLTVK	55 °C
TRVDQTPRTATKETGESLTINCVLTGTSCSLYSTSWFRKNPGTTDWERISIGGRYVESVNKGAKSFSLRIKDLTVADSATYYCKAQKHCGYDWYDGAGTALTVK	72 °C

Same assay, conditions: DSF (SYPRO)

Sequence	Tm
QVQLVESGGGLVQAGGSLRLSCAVSGLGAHRVGWFRRAPGKEREFVAAIGANGGNTNYLDSVKGRFTISRDNAKNTIYLQMNSLKPQDTAVYYCAARDIETAEYTYWGQGTQVTVSS	72.8 °C
QVQLVESGGGSVQAGGSLRLSCAASGSISSITYLGWFRQAPGKEREGVAALSTSSGTTYYADSVKGRFTVSLDNAENTVYLQMNSLKPEDTALYYCAAASSGSSSPLSSSSYTYWGQGTQVTVSS	95 °C

Same assay, conditions: nanoDSF

Sequence	Tm
TGGALVQAGGSLRLSCAASETSSVSLSWMGWYRQAPGKERELVAGINRDRPKYKESVKGRFTISRDNAQNTVYLQMNSLKPEDTAVYYCNTVPPRGDYWGQGTQV	65.7 °C
TGGGLVQAGASLRLSCAASGRTFSTDHMGWFRQAPQKEREFVAAINAWSGLSIYYADSVKGRFTISRDNDKKTAYLQMNSLKPEDTAVYYCAAKEMGRGWVPQSSDDYDAWGQGTQV	66.6 °C
TGGGLVQPGGSLRLSCAASGSISSINAMGWYRQAPGKQRELVAAITIRGNTVYGDSVKGRFTVSRDNAKNTVYLQMNSLKPEDTAVYYCNAKSTPSLYAAGYGVDYWGEGTLV	69.8 °C
TGGGWVQAGGSLRLSCAASGRAASGNAMAWFRQAPGKEREFVALISWSGGRPYYANSVKGRFAISRDNATNTVYLQMNRLKPEDTAVYYCAASPTIAILPTPYDYWGQGTQV	75.3 °C
